Paper PMC7997880, “MED15 prion-like domain forms a coiled-coil responsible for its amyloid conversion and propagation” (Communications Biology, 2021)
Values belong to the molecule of their own block, whether it stands above or below them.

Legend:
[1] = target: GFP-MED15PP (GFP-MED15CC with five Pro substitutions in the MED15 coiled-coil region); experiment: GFP fluorescence of supernatant fraction (self-association / aggregation); details: 5 μM protein, 9 hours at 37 °C without agitation in 20 mM Tris pH 7.5 and 150 mM NaCl; parent: est. 0.50; read off a plot
[2] = target: GFP-MED15PP (GFP-MED15CC with five Pro substitutions in the MED15 coiled-coil region); experiment: synchronous light scattering (self-association / aggregation); details: 5 μM protein, 9 hours at 37 °C without agitation in 20 mM Tris pH 7.5 and 150 mM NaCl; parent: est. 620; read off a plot
[3] = target: the molecule itself; experiment: SEC; 2 mg/ml purified protein on Superdex 200 HR 10/30; 20 mM TrisHCl pH 7.4, 150 mM NaCl, 10% glycerol

other: Normalized GFP fluorescence (supernatant fraction) [1]: 0.83
response [2]: 180 a.u.
Molecule: GFP-MED15CC (human MED15 prion-like domain, MED15-PrLD, residues 141-316, fused at the C-terminus of GFP) MED15PP (five Pro substitutions at heptad 'a' positions; residues not printed in this figure)

B1: GFP-MED15CC (human MED15 prion-like domain, MED15-PrLD, residues 141-316, fused at the C-terminus of GFP) (domain or fragment)
chain: MAVVSTATPQTQLQLQQVALQQQQQQQQFQQQQQAALQQQQQQQQQQQFQAQQSAMQQQFQAVVQQQQQLQQQQQQQQHLIKLHHQNQQQIQQQQQQLQRIAQLQLQQQQQQQQQQQQQQQQALQAQPPIQQPPMQQPQPPPSQALPQQLQQMHHTQHHQPPPQPQQPPVAQNQPS
notes: Mediator complex subunit 15 (MED15), human, prion-like domain with the Q-rich coiled-coil and Pro-rich regions, residues 141-316; No cleavage step is described; Dimer by SEC, native PAGE and DLS; source: E. coli BL21 Rosetta, pET21b, purified from the soluble fraction (two HisTrap Ni steps, RNase treatment, PD10); not shown: GFP, N-terminal, kept
stoichiometry N [3]: 2
